This note sets out measurements from PMC314469, “Protein Interaction Networks by Proteome Peptide Scanning” (PLoS Biology, 2004).

B1: YDR389W 56-68 (peptide)
chain: PTTLKRPPLSSRP
B2: YCL008C 82-95 (peptide)
chain: PVIMWVPSMYPVKP
B3: YLL022C 355-367 (peptide)
chain: PTTSIGFPALEKP
B4: YOR299W 396-408 (peptide)
chain: QEAVNSSPSEFRP
B5: YLR375W 257-269 (peptide)
chain: QLDMDMYPYKLKP
B6: YBR189W 5-18 (peptide)
chain: PRTYSKTYSTPKRP
B7: YDL095W 15-28 (peptide)
chain: PVPELDIKQGPVRP
B8: YPL085W 911-924 (peptide)
chain: QPPTGILPLAPLRP
B9: YGL105W 194-206 (peptide)
chain: QEQQNKAPEKPKP
B10: YLR029C 32-45 (peptide)
chain: QKNVIHRAARPTRP
B11: YHR196W 194-206 (peptide)
chain: QMVYIVDPSKRRP
B12: YOR181W 300-312 (peptide)
chain: QAPSMGIPQQNRP
B13: YGR112W 321-333 (peptide)
chain: QFIKAGVPIGRKP
B14: YLR304C 734-746 (peptide)
chain: PVTMRVHPKNGKP
B15: YER169W 386-398 (peptide)
chain: QLPNPAMPLLHRP
B16: YIL072W 279-292 (peptide)
chain: QEENKLEESVPTKP
B17: YCR032W 1846-1859 (peptide)
chain: QLTTEVWRKVPMKP
B18: YHR031C 197-209 (peptide)
chain: QGLKLTVPKKIKP
B19: YLL016W 403-416 (peptide)
chain: QNDLPTGYYEPMKP
B20: YGR116W 858-871 (peptide)
chain: QNSERAAQEFPNKP
B21: YGR271W 1358-1371 (peptide)
chain: PVFMAIKQHSPDKP
B22: YML109W 615-628 (peptide)
chain: PSVVSSSESQPSKP
B23: YLR304C 105-117 (peptide)
chain: QFMSAGLPQVAKP
B24: YML113W 199-211 (peptide)
chain: PYNYLQRPFIVKP
B25: YPL125W 1020-1032 (peptide)
chain: QMFLSIQPQEARP
B26: YIL091C 357-369 (peptide)
chain: QFRDDSLPPKSKP
B27: YJL208C 31-43 (peptide)
chain: QIIETPYPPTQKP
B28: YHL032C 439-451 (peptide)
chain: QEYGGQKPELSKP
B29: YKR001C 550-562 (peptide)
chain: PRQVAVDPKTGKP
B30: YPL243W 519-532 (peptide)
chain: PTDIQLKNLFPLKP
B31: YCR024C 376-388 (peptide)
chain: PVFVTDYPRLSKP
B32: YPR129W 112-124 (peptide)
chain: QAHVQTNPQVPKP
B33: YMR072W 33-46 (peptide)
chain: QLRNELIKQGPKRP
B34: YLR138W 520-533 (peptide)
chain: QIGSVATSGIPARP
B35: YDR464W 340-353 (peptide)
chain: PVSSRKAVEPPRKP
B36: YOR249C 37-50 (peptide)
chain: PTAVFLRLISPTRP
B37: YNL137C 407-420 (peptide)
chain: QKNYVYGRQDPKKP
B38: YHR030C 429-442 (peptide)
chain: QNLPRHDADFPPRP
B39: YOL061W 103-115 (peptide)
chain: PYTAKGAPIISKP
B40: YDR310C 197-210 (peptide)
chain: QHNTSSSRRGPGRP
B41: YPR118W 222-234 (peptide)
chain: PRMGHVFPLETRP
B42: YLR304C 557-570 (peptide)
chain: PTSDRLQLLKPFKP
B43: YBR073W 34-47 (peptide)
chain: QMQIPKYENKPFKP
B44: YKL101W 857-870 (peptide)
chain: QLQKKNDRPSPLKP
B45: YNR010W 13-25 (peptide)
chain: QILLPTNPTLDKP
B46: YNL139C 1426-1438 (peptide)
chain: PSNDRSAPKNIKP
B47: YMR160W 21-34 (peptide)
chain: QIREDQQEVPPQRP
B48: YHR001W-A 64-76 (peptide)
chain: PTLEDHTPPEDKP
B49: YPL188W 113-126 (peptide)
chain: QDFKSPLENDPNRP
B50: YOR070C 275-287 (peptide)
chain: QISWNGIPKIHRP
B51: YFL007W 1286-1298 (peptide)
chain: QLATSLYPDIYKP
B52: YLR263W 598-611 (peptide)
chain: QDKRNLRSNAPTKP
B53: YBR108W 580-593 (peptide)
chain: QEDPISNFLPPPKP
B54: YER132C 1035-1047 (peptide)
chain: QDYGSISPSNIRP

For this assay, the target named is T1, Abp1 SH3 (ABP1_YEAST), P15891.
T1 chain: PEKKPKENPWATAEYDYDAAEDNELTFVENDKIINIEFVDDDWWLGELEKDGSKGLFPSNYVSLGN
Description: SPOT array.
With B1, the normalised SPOT signal, Boehringer light units (BLU); mean over the file's lines of this peptide is 6140. B2 gave a normalised SPOT signal, Boehringer light units (BLU); mean over the file's lines of this peptide of 94.4. B3 registered a normalised SPOT signal, Boehringer light units (BLU); mean over the file's lines of this peptide of 49.2. Consider B4, for which the normalised SPOT signal, Boehringer light units (BLU); mean over the file's lines of this peptide turned out to be 165. As to B5, the normalised SPOT signal, Boehringer light units (BLU); mean over the file's lines of this peptide was 57.3. Turning to B6, the normalised SPOT signal, Boehringer light units (BLU); mean over the file's lines of this peptide came out at 88.1.

In the case of B7, the normalised SPOT signal, Boehringer light units (BLU); mean over the file's lines of this peptide was 183. B8 came in with a normalised SPOT signal, Boehringer light units (BLU); mean over the file's lines of this peptide of 63.4. B9 yielded a normalised SPOT signal, Boehringer light units (BLU); mean over the file's lines of this peptide of 46.6. Molecule B10 had a normalised SPOT signal, Boehringer light units (BLU); mean over the file's lines of this peptide of 253. As for B11, the normalised SPOT signal, Boehringer light units (BLU); mean over the file's lines of this peptide was 445.

B12 gave a normalised SPOT signal, Boehringer light units (BLU); mean over the file's lines of this peptide of 117.

Molecule B13 had a normalised SPOT signal, Boehringer light units (BLU); mean over the file's lines of this peptide of 7910.

B14 showed a normalised SPOT signal, Boehringer light units (BLU); mean over the file's lines of this peptide of 1700. The result for B15 reads 160; that for B16, 88. B17 had a normalised SPOT signal, Boehringer light units (BLU); mean over the file's lines of this peptide of 897. B18 gave a normalised SPOT signal, Boehringer light units (BLU); mean over the file's lines of this peptide of 1000.

In turn, B19 came in with a normalised SPOT signal, Boehringer light units (BLU); mean over the file's lines of this peptide of 15.1. The result for B20 reads 75.2; that for B21, 790; that for B22, 23.6. As for B23, the figure is 140; as for B24, 206; as for B25, 310. On to B26, for which the normalised SPOT signal, Boehringer light units (BLU); mean over the file's lines of this peptide is 196.

B27 registered a normalised SPOT signal, Boehringer light units (BLU); mean over the file's lines of this peptide of 55. As for B28, the figure is 58.1; as for B29, 32.3. The molecule B30 gave a normalised SPOT signal, Boehringer light units (BLU); mean over the file's lines of this peptide of 128.

For B31, the normalised SPOT signal, Boehringer light units (BLU); mean over the file's lines of this peptide was found to be 93.5. For the molecule B32, the normalised SPOT signal, Boehringer light units (BLU); mean over the file's lines of this peptide was found to be 0.

On to B33, for which the normalised SPOT signal, Boehringer light units (BLU); mean over the file's lines of this peptide was 212. For B34, the normalised SPOT signal, Boehringer light units (BLU); mean over the file's lines of this peptide stood at 66.6. B35 registered a normalised SPOT signal, Boehringer light units (BLU); mean over the file's lines of this peptide of 479. Turning to B36, the normalised SPOT signal, Boehringer light units (BLU); mean over the file's lines of this peptide was 37.3. For the molecule B37, the normalised SPOT signal, Boehringer light units (BLU); mean over the file's lines of this peptide stood at 147. As for B38, the normalised SPOT signal, Boehringer light units (BLU); mean over the file's lines of this peptide is 22. The molecule B39 yielded a normalised SPOT signal, Boehringer light units (BLU); mean over the file's lines of this peptide of 127.

In turn, B40 had a normalised SPOT signal, Boehringer light units (BLU); mean over the file's lines of this peptide of 579.

Molecule B41 came in with a normalised SPOT signal, Boehringer light units (BLU); mean over the file's lines of this peptide of 4090.

In turn, B42 yielded a normalised SPOT signal, Boehringer light units (BLU); mean over the file's lines of this peptide of 920.

As to B43, the normalised SPOT signal, Boehringer light units (BLU); mean over the file's lines of this peptide came to 316.

Molecule B44 registered a normalised SPOT signal, Boehringer light units (BLU); mean over the file's lines of this peptide of 347. Molecule B45 displayed a normalised SPOT signal, Boehringer light units (BLU); mean over the file's lines of this peptide of 135. As for B46, the figure is 86.5; as for B47, 74.4; as for B48, 81.

Regarding B49, the normalised SPOT signal, Boehringer light units (BLU); mean over the file's lines of this peptide was 41.4. Turning to B50, the normalised SPOT signal, Boehringer light units (BLU); mean over the file's lines of this peptide is 1750. As for B51, the figure is 86.3; as for B52, 67.5; as for B53, 114. Take B54: the normalised SPOT signal, Boehringer light units (BLU); mean over the file's lines of this peptide stood at 0.
